Assay in all cases: cell-based or functional assay
Assay [1] concerns the target SARS-CoV-2 "Alpha" UK B.1.1.7 full-length Spike protein on pseudovirus (SARS-CoV-2) (UniProt P0DTC2).
Assay [2] concerns the target SARS-CoV-2 "Beta" SA B.1.351 full-length Spike protein on pseudovirus (SARS-CoV-2) (UniProt P0DTC2).
Assay [3] concerns the target SARS-CoV-2 "Delta" B.1.617.2 full-length Spike protein on pseudovirus (SARS-CoV-2) (UniProt P0DTC2).
For assay [4], the target named is SARS-CoV-2 "Delta-plus" B.1.617.2.1 full-length Spike protein on pseudovirus (SARS-CoV-2) (UniProt P0DTC2).
In assay [5] the target is SARS-CoV-2 "Epsilon" B.1.427/9 full-length Spike protein on pseudovirus (SARS-CoV-2) (UniProt P0DTC2).
Assay [6] has as its target SARS-CoV-2 "Gamma" Brazil P.1.B.1.1.28 full-length Spike protein on pseudovirus (SARS-CoV-2) (UniProt P0DTC2).

Take “Anti-Nucleocapsid (Neg Control) (antibody)”: the Pseudovirus Neturalization in assay [1], in assay [2], in assay [3], in assay [4], in assay [5] and in assay [6] was over 50 µg/mL each time.
For CA-1 (AB-009265) (antibody), the Pseudovirus Neturalization in assay [1] was 0.209 µg/mL; in assay [2], over 50 µg/mL; in assay [3], 2.19 µg/mL; in assay [4], 41.5 µg/mL; in assay [5], 0.33 µg/mL; in assay [6], over 50 µg/mL.
Take CB-6 (AB-009264) (antibody): the Pseudovirus Neturalization in assay [1] was 0.417 µg/mL; in assay [2], over 50 µg/mL; in assay [3], 0.004 µg/mL; in assay [4], over 50 µg/mL; in assay [5], 0.009 µg/mL; in assay [6], over 50 µg/mL.
In the case of COVA1-21 (AB-010159) (antibody), the Pseudovirus Neturalization in assay [1], in assay [2], in assay [3], in assay [4], in assay [5] and in assay [6] was over 50 µg/mL each time.
For CR3022 (AB-009073) (antibody), the Pseudovirus Neturalization in assay [1], in assay [2], in assay [3], in assay [4], in assay [5] and in assay [6] was over 50 µg/mL throughout.
In the case of “LY-CoV555 | Bamlanivimab (AB-010160) (antibody)”, the Pseudovirus Neturalization is 0.0012 µg/mL in assay [1]; over 50 µg/mL in assay [2]; 19.3 µg/mL in assay [3]; 6.93 µg/mL in assay [4]; 7.82 µg/mL in assay [5]; over 50 µg/mL in assay [6].
As for “REGN10933 | Casirivimab (AB-010156) (antibody)”, the Pseudovirus Neturalization in assay [2] is 1.09 µg/mL; in assay [3], 0.001 µg/mL; in assay [4] it was 0.001 µg/mL; in assay [5], 0.001 µg/mL; in assay [6] it was 0.666 µg/mL.
Regarding “REGN10987 | Imdevimab (AB-010157) (antibody)”, the Pseudovirus Neturalization in assay [3], in assay [4] and in assay [5] was 0.001 µg/mL each time.
